Reference: IntAct's records for PubMed 26483485

B1: Cell adhesion molecule CEACAM8 (Homo sapiens), P31997 (parent)
chain: MGPISAPSCRWRIPWQGLLLTASLFTFWNPPTTAQLTIEAVPSNAAEGKEVLLLVHNLPQDPRGYNWYKGETVDANRRIIGYVISNQQITPGPAYSNRETIYPNASLLMRNVTRNDTGSYTLQVIKLNLMSEEVTGQFSVHPETPKPSISSNNSNPVEDKDAVAFTCEPETQNTTYLWWVNGQSLPVSPRLQLSNGNRTLTLLSVTRNDVGPYECEIQNPASANFSDPVTLNVLYGPDAPTISPSDTYYHAGVNLNLSCHAASNPPSQYSWSVNGTFQQYTQKLFIPNITTKNSGSYACHTTNSATGRNRTTVRMITVSDALVQGSSPGLSARATVSIMIGVLARVALI
B2: Cell adhesion molecule CEACAM6 (Homo sapiens), P40199 (parent)
chain: MGPPSAPPCRLHVPWKEVLLTASLLTFWNPPTTAKLTIESTPFNVAEGKEVLLLAHNLPQNRIGYSWYKGERVDGNSLIVGYVIGTQQATPGPAYSGRETIYPNASLLIQNVTQNDTGFYTLQVIKSDLVNEEATGQFHVYPELPKPSISSNNSNPVEDKDAVAFTCEPEVQNTTYLWWVNGQSLPVSPRLQLSNGNMTLTLLSVKRNDAGSYECEIQNPASANRSDPVTLNVLYGPDVPTISPSKANYRPGENLNLSCHAASNPPAQYSWFINGTFQQSTQELFIPNITVNNSGSYMCQAHNSATGLNRTTVTMITVSGSAPVLSAVATVGITIGVLARVALI

Variants of: B1
Settings: with ceam6_human CEACAM6, P40199

Row | Variant | effect of a mutation on the interaction
1 | L129A | disrupting interaction strength
2 | R77A | disrupting interaction strength
3 | Q123A | with no effect

Variants of: B2
Settings: with ceam8_human CEACAM8, P31997

Row | Variant | effect of a mutation on the interaction
4 | MGPPSAPPCRLHVPWKEVLLTASLLTFWNPPTTAKLTIESTPFNVAEGKEVLLLAHNLPQNRIGYSWYKGERVDGNSAIVGYVIGTQQATPGPAYSGRETIYPNASLLIQNVTQNDTGFYTLQVIKSDLVNEEATGQFHVYPELPKPSISSNNSNPVEDKDAVAFTCEPEVQNTTYLWWVNGQSLPVSPRLQLSNGNMTLTLLSVKRNDAGSYECEIQNPASANRSDPVTLNVLYGPDVPTISPSKANYRPGENLNLSCHAASNPPAQYSWFINGTFQQSTQELFIPNITVNNSGSYMCQAHNSATGLNRTTVTMITVSGSAPVLSAVATVGITIGVLARVALI [L78A] | with no effect
5 | MGPPSAPPCRLHVPWKEVLLTASLLTFWNPPTTAKLTIESTPFNVAEGKEVLLLAHNLPQNRIGYSWYKGERVDGNSLIVGYVIGTQQATPGPAYSGRETIYPNASLLIQNVTQNDTGFYTLQVIKSDAVNEEATGQFHVYPELPKPSISSNNSNPVEDKDAVAFTCEPEVQNTTYLWWVNGQSLPVSPRLQLSNGNMTLTLLSVKRNDAGSYECEIQNPASANRSDPVTLNVLYGPDVPTISPSKANYRPGENLNLSCHAASNPPAQYSWFINGTFQQSTQELFIPNITVNNSGSYMCQAHNSATGLNRTTVTMITVSGSAPVLSAVATVGITIGVLARVALI [L129A] | disrupting interaction strength
6 | MGPPSAPPCRLHVPWKEVLLTASLLTFWNPPTTAKLTIESTPFNVAEGKEVLLLAHNLPQNRAGYSWYKGERVDGNSLIVGYVIGTQQATPGPAYSGRETIYPNASLLIQNVTQNDTGFYTLQVIKSDLVNEEATGQFHVYPELPKPSISSNNSNPVEDKDAVAFTCEPEVQNTTYLWWVNGQSLPVSPRLQLSNGNMTLTLLSVKRNDAGSYECEIQNPASANRSDPVTLNVLYGPDVPTISPSKANYRPGENLNLSCHAASNPPAQYSWFINGTFQQSTQELFIPNITVNNSGSYMCQAHNSATGLNRTTVTMITVSGSAPVLSAVATVGITIGVLARVALI [I63A] | disrupting interaction strength
7 | MGPPSAPPCRLHVPWKEVLLTASLLTFWNPPTTAKLTIESTPFNVAEGKEVLLLAHNLPQNRIGYSWYKGERVDGNSLIVGYVIGTQQATPGPAYSGRETIYPNASLLIQNVTQNDTGFYTLAVIKSDLVNEEATGQFHVYPELPKPSISSNNSNPVEDKDAVAFTCEPEVQNTTYLWWVNGQSLPVSPRLQLSNGNMTLTLLSVKRNDAGSYECEIQNPASANRSDPVTLNVLYGPDVPTISPSKANYRPGENLNLSCHAASNPPAQYSWFINGTFQQSTQELFIPNITVNNSGSYMCQAHNSATGLNRTTVTMITVSGSAPVLSAVATVGITIGVLARVALI [Q123A] | with no effect
